The record followed here is patent publication US11566081B2, “Anti-acetaminophen antibodies and acetaminophen protein adducts” (BioVentures, LLC, priority 2014, dated 2023).

This assay deals with acetaminophen protein adduct (BSA-APAP, 3-(cystein-S-yl)acetaminophen). Briefly: Competitive ELISA: relative inhibitory potency of APAP-protein adduct (BSA-APAP) versus free APAP. It counts as binding. The settings on record: inhibitors BSA-APAP vs APAP on a molar basis, clone supernatant final dilution 1:500. An excerpt: Tissue culture supernatants from Rabbit monoclonal antibody clone 14-12 at a dilution of 1:250 was mixed with serial 4-fold dilutions of inhibitor (either BSA-APAP or APAP) such that the final dilution of RmAb was 1:500. The final concentrations of APAP were 80, 20, 5, 1.25, and 0.31 nmole per ELISA well. The final concentrations of APAP-BSA (quantified by HPLC-EC as APAP-Cys from the hydrolyzed protein) were 10, 2.5, 0.625, 0.156, and 0.04 pmole per ELISA well.
Synthetically prepared acetaminophen-protein adduct (BSA-APAP) and free drug (APAP) were evaluated in competitive ELISA to determine their relative capacity, on a molar basis, to inhibit the binding of clone 14-12 rabbit monoclonal antibody to solid-phase immobilized acetaminophen protein adduct. […] Restated, clone 14-12 antibody has approximately 8000 times more affinity for acetaminophen protein adduct than it does for free APAP as measured in this ELISA context.
The competitive ELISA was repeated with rabbit monoclonal antibody (RMAb) 14-12 and rabbit monoclonal antibody (RMAb) 22-8. […] After incubation and washing, bound RMAb was detected using Goat anti-Rabbit-IgG conjugated to HRP followed by the substrate TMB and color development was determined using an ELISA plate reader. […]

B1: 22-8: rabbit monoclonal antibody to acetaminophen-protein adduct, immunogen CP-2IT-APAP; light chain SEQ ID NO:15, heavy chain SEQ ID NO:16 (antibody)
heavy: METGLRWLLLVAVLKGVQCQSLEESGGRLVTPGGSLTLTCTASGLTINNYYIIWVRQAPGKGLKYIGITYGGGFAYYASWAKGRFTISRTSTTVDLKMTSLTAEDTATYFCVRAAAGGAYDLWGQGTLVTVSSGQPKAPSVFPLAPCCGDTPSSTVTLGCLVKGYLPEPVTVTWNSGTLTNGVRTFPSVRQSSGLYSLSSVVSVTSSSQPVTCNVAHPATNTKVDKTVAPSTCSKPTCPPPELLGGPSVFIFPPKPKDTLMISRTPEVTCVVVDVSQDDPEVQFTWYINNEQVRTARPPLREQQFNSTIRVVSTLPIAHQDWLRGKEFKCKVHNKALPAPIEKTISKARGQPLEPKVYTMGPPREELSSRSVSLTCMINGFYPSDISVEWEKNGKAEDNYKTTPAVLDSDGSYFLYSKLSVPTSEWQRGDVFTCSVMHEALHNHYTQKSISRSPGK
light: MDTRAPTQLLGLLLLWLPGATFAIEMTQTPSPVSAVVGGTVTINCQSSQNVFRKNYLSWFQQKPGQPPKLLISYIDSLTSGVPSRFSGSGAGTQFTLTISDVQCDDAATYYCLGVDGSANDATFGGGTEVVVEGDPVAPTVLIFPPAADQVATGTVTIVCVANKYFPDVTVTWEVDGTTQTTGIENSKTPQNSADCTYNLSSTLTLTSTQYNSHKEYTCKVTQGTTSVVQSFNRGDC
As to B1, the “times more affinity for acetaminophen protein adduct than for free APAP” value is given as “approximately 1250 times”.

B2: 14-12: rabbit monoclonal antibody to acetaminophen-protein adduct, immunogen CP-2IT-APAP; light chain SEQ ID NO:13, heavy chain SEQ ID NO:14 (antibody)
heavy: METGLRWLLLVAVLKGVQCQSVEESGGRLVTPGTPLTLTCTVSGFSINAYGINWVRQAPGKGLEYIGFSAPHTASYARWTKGRFTMSRTSTTVDLRMTSPTTEDTATYFCARYDRGGMVFNLWGQGTLVTVSSGQPKAPSVFPLAPCCGDTPSSTVTLGCLVKGYLPEPVTVTWNSGTLTNGVRTFPSVRQSSGLYSLSSVVSVTSSSQPVTCNVAHPATNTKVDKTVAPSTCSKPTCPPPELLGGPSVFIFPPKPKDTLMISRTPEVTCVVVDVSQDDPEVQFTWYINNEQVRTARPPLREQQFNSTIRVVSTLPIAHQDWLRGKEFKCKVHNKALPAPIEKTISKARGQPLEPKVYTMGPPREELSSRSVSLTCMINGFYPSDISVEWEKNGKAEDNYKTTPAVLDSDGSYFLYSKLSVPTSEWQRGDVFTCSVMHEALHNHYTQKSISRSPGK
light: MDTRAPTQLLGLLLLWLPGATFALVMTQTPSSVPAAVGGTVTIGCQASQSISRQVSWYQQKPGQPPKLLIYRASTLASGVSSRFKGSGSGTEFTLTISGVQCDDAATYYCLGIVTDRIADGLAFGGGTEVVVKGDPVAPTVLIFPPAADQVATGTVTIVCVANKYFPDVTVTWEVDGTTQTTGIENSKTPQNSADCTYNLSSTLTLTSTQYNSHKEYTCKVTQGTTSVVQSFNRGDC
On to B2, for which the “times more affinity for acetaminophen protein adduct than for free APAP” value is “approximately 8000 times”.
